Source: patent US20200325209A1

Legend:
[1] = molecular target: human neonatal Fc receptor FcRn/β2m, soluble recombinant (human) (UniProt P55899); assay: flow cytometry, labelled FcRn on CHO-displayed HSA, pH 7.4
[2] = molecular target: human neonatal Fc receptor FcRn/β2m, soluble recombinant (human) (UniProt P55899); assay: flow cytometry, labelled FcRn on CHO-displayed HSA, pH 5.5

human neonatal Fc receptor FcRn/β2m, soluble recombinant (human), sequence (P55899 24-297 limits assumed, chain 1 of 2): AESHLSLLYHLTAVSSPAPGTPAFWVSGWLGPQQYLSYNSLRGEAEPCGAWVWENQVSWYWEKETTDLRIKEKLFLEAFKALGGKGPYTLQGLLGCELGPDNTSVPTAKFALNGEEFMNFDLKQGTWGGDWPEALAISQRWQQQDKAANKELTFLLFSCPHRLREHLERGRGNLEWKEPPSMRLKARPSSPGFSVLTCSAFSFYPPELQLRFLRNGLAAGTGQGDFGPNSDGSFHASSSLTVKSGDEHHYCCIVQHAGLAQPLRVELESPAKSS
human neonatal Fc receptor FcRn/β2m, soluble recombinant (human), sequence (P61769 21-119 limits assumed, chain 2 of 2, further chain): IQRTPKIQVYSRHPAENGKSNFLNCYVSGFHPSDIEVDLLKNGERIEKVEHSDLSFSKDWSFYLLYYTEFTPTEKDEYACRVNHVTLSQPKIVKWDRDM

Substance	mean geoMFI [1]	mean geoMFI [2]
HSA [Q522A], membrane-tethered on CHO cells (from UniProt P02768 25-609)	17.8	
HSA [Q522D], membrane-tethered on CHO cells (from UniProt P02768 25-609)	22.4	317
HSA [G572N], membrane-tethered on CHO cells (from UniProt P02768 25-609)	36.4	85.8
HSA [Q522R], membrane-tethered on CHO cells (from UniProt P02768 25-609)	17.8	386
HSA [G572D], membrane-tethered on CHO cells (from UniProt P02768 25-609)	32.7	305
HSA [G572P], membrane-tethered on CHO cells (from UniProt P02768 25-609)	30.6	216
HSA [G572Q], membrane-tethered on CHO cells (from UniProt P02768 25-609)		201
HSA [Q522E], membrane-tethered on CHO cells (from UniProt P02768 25-609)	29.2	128
HSA [Q522T], membrane-tethered on CHO cells (from UniProt P02768 25-609)	28.3	290
HSA [G572V], membrane-tethered on CHO cells (from UniProt P02768 25-609)	20.7	58.2
HSA [Q522S], membrane-tethered on CHO cells (from UniProt P02768 25-609)	32.7	258
HSA [Q522H], membrane-tethered on CHO cells (from UniProt P02768 25-609)	27.2	
HSA [Q522N], membrane-tethered on CHO cells (from UniProt P02768 25-609)	31.4	
HSA [Q522P], membrane-tethered on CHO cells (from UniProt P02768 25-609)	29.4	
